In paper PMC12756210, “Calcium signaling-mediated phosphorylation controls zinc allocation in Arabidopsis” (Stress Biology, 2025):

How the values were obtained:
CIPK23-His = biological target: T1, CIPK23-His (Arabidopsis, UniProt Q93VD3 1-482); test: pull-down; GST-ZIP2-Loop (or GST) on glutathione beads incubated with His-CIPK3/9/23/26; eluate blotted with anti-His antibody; details: both partners purified
T1 construct: amplified and cloned into pET30a; Printed both as CIPK3/9/23/26-His and as His-CIPK3/9/23/26, so the end of the tag is open; also called His-CIPK23; source: recombinant, cloned into pET30a
T1 sequence (looked up): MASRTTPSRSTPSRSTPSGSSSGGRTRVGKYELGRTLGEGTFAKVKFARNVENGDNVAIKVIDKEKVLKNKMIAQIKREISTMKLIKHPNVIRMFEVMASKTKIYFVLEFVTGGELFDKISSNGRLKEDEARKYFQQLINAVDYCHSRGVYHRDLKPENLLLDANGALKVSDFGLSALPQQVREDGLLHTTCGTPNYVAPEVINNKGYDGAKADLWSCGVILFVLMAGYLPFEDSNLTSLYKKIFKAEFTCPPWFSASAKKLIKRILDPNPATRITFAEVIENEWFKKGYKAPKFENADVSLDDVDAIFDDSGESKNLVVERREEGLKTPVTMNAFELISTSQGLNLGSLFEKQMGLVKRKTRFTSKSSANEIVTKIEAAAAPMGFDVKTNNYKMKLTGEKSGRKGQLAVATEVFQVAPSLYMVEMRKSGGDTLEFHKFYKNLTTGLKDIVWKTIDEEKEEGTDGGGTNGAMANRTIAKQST

CIPK26-His = biological target: T2, CIPK26-His (Arabidopsis, UniProt Q84VQ3 1-439); test: as above; details: both partners purified
T2 construct: amplified and cloned into pET30a; Printed both as CIPK3/9/23/26-His and as His-CIPK3/9/23/26, so the end of the tag is open; also called His-CIPK26; source: recombinant, cloned into pET30a
T2 sequence (looked up): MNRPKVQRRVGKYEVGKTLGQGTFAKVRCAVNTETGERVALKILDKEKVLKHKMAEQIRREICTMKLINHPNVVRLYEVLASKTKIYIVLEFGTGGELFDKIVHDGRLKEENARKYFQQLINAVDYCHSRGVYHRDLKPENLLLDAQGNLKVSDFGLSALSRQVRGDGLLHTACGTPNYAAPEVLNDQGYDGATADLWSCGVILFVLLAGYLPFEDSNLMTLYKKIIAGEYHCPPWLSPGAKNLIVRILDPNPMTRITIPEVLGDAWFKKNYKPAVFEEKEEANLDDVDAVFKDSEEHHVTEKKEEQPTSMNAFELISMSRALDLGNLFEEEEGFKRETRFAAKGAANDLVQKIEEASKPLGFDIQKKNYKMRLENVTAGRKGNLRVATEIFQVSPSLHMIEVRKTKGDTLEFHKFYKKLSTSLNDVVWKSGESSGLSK

B1: GST-ZIP2-Loop (domain or fragment, Arabidopsis, UniProt Q9LTH9 151-203, looked up)
chain: VAAGSNNNHVGASVGESREDDDVAVKEEGRREIKSGVDVSQALIRTSGFGDTA
notes: Zn transporter ZIP2, Arabidopsis; the largest Loop domain, residues 151-203 (451-609 bp of the CDS); Printed as GST-ZIP2-Loop and as ZIP2-Loop-GST; pGEX4T-1 normally places GST at the N-terminus (surmised); also called ZIP2-Loop-GST; source: prokaryotic fusion protein (pGEX4T-1), purified
B1: binds (CIPK23-His); binds (CIPK26-His).
